One block for each molecule: values may come before it.
What was measured:
[1] = biological target: BRIL-fused human Cx36 (cytoplasmic loop residues 109-187 replaced with cytochrome b562RIL) (UniProt Q9UKL4); assay: cryo-EM structure; single-particle cryo-EM of the purified gap junction channel in LMNG/CHS detergent; D6 symmetry; 50 mM phenylalanine added for Cx36-WT
[2] = biological target: the molecule itself; assay: cryo-EM structure; single-particle cryo-EM of the purified gap junction channel in MSP1E1 nanodiscs with soybean polar lipid extract; D6, C6 or C1 symmetry; 50 mM phenylalanine added for Cx36-WT
[3] = biological target: the molecule itself; assay: cryo-EM structure; single-particle cryo-EM of the purified gap junction channel in LMNG/CHS detergent; D6 symmetry; 50 mM phenylalanine added for Cx36-WT

stoichiometry N [1]: 12
Molecule: BRIL-fused human Cx36 (cytoplasmic loop residues 109-187 replaced with cytochrome b562RIL) (from UniProt Q9UKL4 1-108; P0ABE7 21-128; Q9UKL4 188-321)

B1: Human Cx36 with N-terminal residues 2-8 deleted (natural protein, UniProt Q9UKL4 1-321, looked up)
chain: MRLLEAAVQQHSTMIGRILLTVVVIFRILIVAIVGETVYDDEQTMFVCNTLQPGCNQACYDRAFPISHIRYWVFQIIMVCTPSLCFITYSVHQSAKQRERRYSTVFLALDRDPPESIGGPGGTGGGGSGGGKREDKKLQNAIVNGVLQNTENTSKETEPDCLEVKELTPHPSGLRTASKSKLRRQEGISRFYIIQVVFRNALEIGFLVGQYFLYGFSVPGLYECNRYPCIKEVECYVSRPTEKTVFLVFMFAVSGICVVLNLAELNHLGWRKIKLAVRGAQAKRKSIYEIRNKDLPRVSVPNFGRTQSSDSAYV
notes: Connexin 36 (Cx36, GJD2), human, full length with 7 N-terminal residues (2-8) deleted; Made by PCR from pXY-Cx36-WT; expressed and purified by the same protocol as Cx36-WT; also called Cx36-ΔN8; Cx36_(Nano)-ΔN8; source: HEK293E, transiently transfected, purified as Cx36-WT; reconstituted in MSP1E1 soybean lipid nanodiscs; not shown: eYFP, C-terminal, cleaved; 10xHis, C-terminal, cleaved; copies: …
binding result [2]: binds

B2: Wild-type human connexin 36 (Cx36/GJD2) gap junction channel (natural protein, UniProt Q9UKL4 1-321, looked up)
chain: MGEWTILERLLEAAVQQHSTMIGRILLTVVVIFRILIVAIVGETVYDDEQTMFVCNTLQPGCNQACYDRAFPISHIRYWVFQIIMVCTPSLCFITYSVHQSAKQRERRYSTVFLALDRDPPESIGGPGGTGGGGSGGGKREDKKLQNAIVNGVLQNTENTSKETEPDCLEVKELTPHPSGLRTASKSKLRRQEGISRFYIIQVVFRNALEIGFLVGQYFLYGFSVPGLYECNRYPCIKEVECYVSRPTEKTVFLVFMFAVSGICVVLNLAELNHLGWRKIKLAVRGAQAKRKSIYEIRNKDLPRVSVPNFGRTQSSDSAYV
notes: Connexin 36 (Cx36, GJD2), human, full length (Met1-Val321); The tags were cut off at an HRV 3C site between Cx36 and eYFP; residues of the site may be left at the C-terminus; also called Cx36-WT; Cx36_(LMNG)-WT; source: HEK293E, transiently transfected, purified (Rho-1D4 antibody resin, HRV 3C cleavage, Superose 6 Increase SEC); in LMNG/CHS or reconstituted in MSP1E1 soybean lipid nanodiscs; not …
stoichiometry N [3]: 12
